Tested on: MS2 coat protein
Assay: apparent KD of MS2 coat protein; designed switch direction (-1 OFF switch, 1 ON switch): 1; higher = weaker reporter binding
In short: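 Apparent KD, taken as the median over clusters for each design, was obtained by curve-fitting normalised cluster fluorescence. Designed RNA switches had been transcribed on Illumina chips by stalled E. coli RNA polymerase and titrated with SNAP-549-labelled MS2 coat protein, doubling from 0.7 or 1.5 nM to 3 µM.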

[1] = input ligand: microRNA oligo, concentration not stated
[2] = Eterna round: R95, input ligand: FMN 200 uM
[3] = Eterna round: R95, input ligand: microRNA oligo, concentration not stated
[4] = Eterna round: R95, input ligand: none

Sequence	apparent KD of MS2 coat protein (input ligand: FMN 200 uM) [µM]	apparent KD of MS2 coat protein [1] [µM]	apparent KD of MS2 coat protein (input ligand: none) [µM]	apparent KD of MS2 coat protein [2] [µM]	apparent KD of MS2 coat protein [3] [µM]	apparent KD of MS2 coat protein [4] [µM]
AGUCCAGCCAGAGCUGGACAAAAGCAUGUACAUGAGGAUCACCCAUGUUCAUGUACAAGCUUUUUGCAAGUCAAAAU [Mat - hsa-mir-208a - Mod of JL - 83] (Eterna round: R96, puzzle: Sensor for hsa-mir-208a)	0.578	0.016	0.592	–	–	–
AGUCCAGCCAGAGCUGGACAAAAGCAUGUACAUGAGGAUCACCCAUGUUCAUGUACAAGCUUUUUGCAAGUCAAAAU [Mat - hsa-mir-208a - Mod of JL - 83] (puzzle: Sensor for hsa-mir-208a)	–	–	–	0.614	0.0168	1.11
AGUCCAGCCUGAGCUGGACAAAAGCAUGUACAUGAGGAUCACCCAUGUCAUGUACAAGCUUUAUGCUCGUCUUAAAA [Mat - hsa-mir-208a - Mod of JL - D15] (puzzle: Sensor for hsa-mir-208a)	–	–	–	0.224	0.0156	0.298
AGUCCAGCCUGAGCUGGACAAAAGCAUGUACAUGAGGAUCACCCAUGUCAUGUACAAGCUUUUUGCAAAUCUUAAUA [Mat - hsa-mir-208a - Mod of JL - D34] (Eterna round: R96, puzzle: Sensor for hsa-mir-208a)	0.999	0.0146	1.18	–	–	–
AGUCCAGCCUGAGCUGGACAAAAGCAUGUACAUGAGGAUCACCCAUGUCAUGUACAAGCUUUUUGCAAAUCUUAAUA [Mat - hsa-mir-208a - Mod of JL - D34] (puzzle: Sensor for hsa-mir-208a)	–	–	–	0.603	0.0146	0.807
AGUCCAGCCUGAGCUGGACAAAAGCAUGUACAUGAGGAUCACCCAUGUCAUGUACAGGCUUUUUGCUCGUCUUAAUA [Zipper 49 - 7] (puzzle: Sensor for hsa-mir-208a)	–	–	–	0.433	0.0168	0.583
AGUCCAGCCUGAGCUGGACAAAAGCAUGUACAUGAGGAUCACCCAUGUCAUGUGCAAGCUUUUUGCUCGUCUUAAUA [Zipper 49 - 5] (puzzle: Sensor for hsa-mir-208a)	–	–	–	0.0645	0.0119	0.0703
AGUCCAGCCUGAGCUGGACAAAAGCAUGUACAUGAGGAUCACCCAUGUCGUGUACAAGCUUUUUGCUCGUCUUAAAA [Zipper 46 - 5] (puzzle: Sensor for hsa-mir-208a)	–	–	–	0.376	0.0124	0.334
AGUCCAGCCUGAGCUGGACAAAAGCAUGUACAUGAGGAUCACCCAUGUUCAUGUACAAGCUUUUUGCUCGAAUUAAA [Mat - hsa-mir-208a - Mod of JL - 53] (puzzle: Sensor for hsa-mir-208a)	–	–	–	0.558	0.0154	0.822
AGUCCAGCCUGAGCUGGACAAAAGCAUGUACAUGAGGAUCACCCAUGUUCAUGUACAAGCUUUUUGCUCGUCUUAAG [salish99_208a_r3_028] (puzzle: Sensor for hsa-mir-208a)	–	–	–	0.606	0.016	0.602
AGUCCAGCCUGAGCUGGACAAAAGCAUGUACAUGAGGAUCACCCAUGUUCAUGUACAAGCUUUUUGCUCGUCUUGCU [salish99_208a_r3_105x] (puzzle: Sensor for hsa-mir-208a)	–	–	–	0.578	0.0157	0.68
AGUCCAGCCUGAGCUGGACAAAAGCAUGUACAUGAGGAUCACCCAUGUUCAUGUACAAGUUUUUUGCUCGUCUUAAA [Zipper 52 - 10] (puzzle: Sensor for hsa-mir-208a)	–	–	–	0.0384	0.0111	0.0396
AGUCCAGCCUGAGCUGGACAAAAGCAUGUACAUGAGGAUCACCCAUGUUUAUGUACAAGCUUUUUGCUCGUCUUAAA [Zipper 52 - 12] (puzzle: Sensor for hsa-mir-208a)	–	–	–	0.257	0.0162	0.313
AGUCCAGCCUGAGCUGGACAAGAGCAUGUACAUGAGGAUCACCCAUGUCAUGUACAAGCUUUUUGCUCGUCUUAAUA [Zipper 49 - 2] (puzzle: Sensor for hsa-mir-208a)	–	–	–	0.47	0.0149	0.529
AGUCCUGAAUAAAUUAAACAGAGACAUGUACAUGAGGAUCACCCAUGUCAUGUGCAAGUUUUUUGCUCGUCAUAUAA [Sensorship 17 - Jieux - Sensor for hsa-mir-208a] (puzzle: Sensor for hsa-mir-208a)	–	–	–	0.0137	0.0107	0.0149
AGUGAACAUGAGGAUCACCCAUGUGAGAGAAGUGUAGGAUAUGUGAGGAGCAGAGGAGGGACAGAAGGACAUGGAG [JR_SS!_Sub074] (puzzle: Same State 1)	–	–	–	0.0321	0.038	0.0518
AUAAAACACAUGAGGAUCACCCAUGUGGCCGUAGUCGGCACACAGGAUAUCAAGCAACUAGAGCUUGAGAAGGGUGAGACAAAA [Raar] (Eterna round: R96, puzzle: Same State NG 3)	0.179	0.00409	0.25	–	–	–
AUAAAACAUGAGGAUCACCCAUGUCAACAAAGUCGAGGAUAUGGGCAAAUAAAAUAAGAACCAGAAGGUGAAUAAU [salish99_ss1_r3_032] (puzzle: Same State 1)	–	–	–	0.131	0.0315	0.146
AUAAAACAUGAGGAUCACCCAUGUCAACAAAUUCGAGGAUAUGGGCAAAUAAAAUAAGAACCAGAAGGCGAAUAAU [salish99_ss1_r3_038] (puzzle: Same State 1)	–	–	–	0.0181	0.104	0.0861
AUAAACAGGCUAGGAUAUCCGGAAACUACAGGGCACGACCCUGUGGACAUGAGGAUCACCCAUGUGGAGAAGGAGCCACAUGAA [Edlatibi] (Eterna round: R96, puzzle: Same State NG 2)	0.0151	0.108	0.152	–	–	–
